Data published in patent US12091776B2, “Protease activity profiling via programmable phage display of comprehensive proteome-scale peptide libraries” (THE JOHNS HOPKINS UNIVERSITY, priority 2019, dated 2024).

Molecular target: T1, Caspase-1 (Homo sapiens, UniProt P29466)
T1 construct: purchased BioVision
T1 sequence (P29466 120-297 limits assumed): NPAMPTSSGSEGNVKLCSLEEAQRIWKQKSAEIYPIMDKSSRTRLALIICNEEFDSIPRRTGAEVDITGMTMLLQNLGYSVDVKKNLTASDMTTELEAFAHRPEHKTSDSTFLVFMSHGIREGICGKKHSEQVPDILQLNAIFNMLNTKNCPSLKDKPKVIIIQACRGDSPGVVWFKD
T1 sequence (P29466 317-404 limits assumed): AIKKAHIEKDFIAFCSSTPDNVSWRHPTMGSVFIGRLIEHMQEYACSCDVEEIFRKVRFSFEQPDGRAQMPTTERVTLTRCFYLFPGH
Assay: SEPARATE assay: human peptidome library digest with Caspase-1
Type: biochemical
Conditions: top 20 enriched peptides, human library (90-aa tiles); normalized read counts digest vs mock digest
Method: Streptavidin-coupled magnetic beads (Dynabeads M-280 Streptavidin, ThermoFisher Scientific) were washed (TBS, pH 7.4, 0.01% NP40) and resuspended in binding buffer (TBS, pH 7.4, 0.001% NP40) containing 2E9 plaque forming units per 10 μl of bead slurry. End-over-end mixing at room temperature was performed for one hour. Phage-coated beads were washed three times with wash buffer and transferred into two protein LoBind Eppendorf tubes blocked with TBS, pH 7.4 containing 1% BSA.
Digestion occurred overnight at room temperature with end-over-end rotation. […] To remove any residual biotinylated phage that may have been nonspecifically released, the 150 μl supernatant of the quenched digest reaction is then incubated with a fresh 10 μl of slurry volume M280 streptavidin beads (pre-washed three times with wash buffer) in a LoBind Eppendorf tube blocked with TBS, pH 7.4 containing 1% BSA at room temperature for one hour with end-over-end rotation.
10 μl slurry volume of protein G magnetic dynabeads were washed in buffer (TBS, pH 7.4, 0.01% NP40) and then resuspended in 50 μl TBS, pH 7.4, 0.01% NP40 containing 4 μg of M2 FLAG antibody for thirty minutes at room temperature with end-over-end rotation. The 150 μl quenched digest reaction is added to the 10 μl FLAG-coated Protein G beads and incubated for 60 minutes at room temperature with end-over-end rotation to capture phage particles released at the protease digest step. Beads are rinsed once with 100 μl wash buffer and stored at −80° C. until PCR amplification.
Library PCR preparation, high-throughput DNA sequencing, and peptide read count data generation was performed as described previously.^44 Briefly, library peptide inserts are amplified by resuspending 10 μl of FLAG-coated Protein G beads in PCR1 master mix containing the T7-Pep2_PCR1_F forward primer ([…]) (SEQ ID NO:3) and a T7-SEPARATE vector specific reverse primer ([…]) (SEQ ID NO:4), which includes an adapter sequence for sample-specific barcoding and Illumina P7 adapter incorporation during a subsequent PCR2 reaction. The PCR2 amplicons are pooled and sequenced using an Illumina NextSeq instrument in standard output mode to obtain single-end 50 nucleotide reads. Dual indexed sample demultiplexing and clonal read count determination were performed using exact sequence matching. […] To calculate the normalization factor, 100 peptides were randomly selected from the mock digest conditions with a read count ranging between 10 and 40. The median read count value for these 100 peptides is calculated for each sample. The random peptide selection and median calculation is performed 20 times and the average of the 20 median values is calculated for each sample. Finally, the normalization factor is calculated by dividing the average median value for each sample by that for one of the mock digest conditions. Read counts are then converted to normalized read counts by dividing each sample's read count values by the normalization factor. Fold enrichments are calculated for each peptide by dividing their normalized read counts in the digest condition by the normalized read counts in the mock digest condition. The fold enrichments can be visualized in an MA plot by transforming the normalized read count data into a log ratio (M, on the y-axis) and a mean average (A, on the x-axis) between the digest and mock digest conditions.

B1: HUWE1 2251-2340: 90-aa human peptidome tile of HUWE1 displayed on T7 phage (protein, UniProt Q7Z6Z7 2251-2340, looked up, fragment)
chain: ETLSRIVNQPSSLFGSKSASSKNKSEQDAQGASQDSSSNQQDPGEPGEAEVQEEDHDVTQTEVADGDIMDGEAETDSVVIAGQPEVLSSQ
modifications: displayed on T7 phage
B1 showed a Caspase1 fold change of 17.58 fold.

B2: HUWE1 2296-2485: 90-aa human peptidome tile of HUWE1 displayed on T7 phage; position as printed (protein, UniProt Q7Z6Z7 2296-2485, looked up, fragment)
chain: PGEAEVQEEDHDVTQTEVADGDIMDGEAETDSVVIAGQPEVLSSQEMQVENELEDLIDELLERDGGSGNSTIIVSRSGEDESQEDVLMDEAPSNLSQASTLQANREDSMNILDPEDEEEHTQEEDSSGSNEDEDDSQDEEEEEEEDEEDDQEDDEGEEGDEDDDDDGSEMELDEDYPDMNASPLVRFERF
modifications: T7 phage display
notes: position as printed
B2 showed a Caspase1 fold change of 22.71 fold.

B3: Efs 181-270: 90-aa human peptidome tile displayed on T7 phage (protein, UniProt O43281 181-270, looked up, fragment)
chain: PGEDDAPYDVPLTPKPPAELEPDLEWEGGREPGPPIYAAPSNLKRASALLNLYEAPEELLADGEGGGTDEGIYDVPLLGPEAPPSPEPPG
modifications: displayed on T7 phage
In the case of B3, the Caspase1 fold change is reported as 21.06 fold.

B4: MAP3K14 496-585: 90-aa human peptidome tile displayed on T7 phage (protein, UniProt Q99558 496-585, looked up, fragment)
chain: LGQALEGLEYLHSRRILHGDVKADNVLLSSDGSHAALCDFGHAVCLQPDGLGKSLLTGDYIPGTETHMAPEVVLGRSCDAKVDVWSSCCM
modifications: displayed on T7 phage
B4 was tested, and the Caspase1 fold change was 16.5 fold.

B5: LYST 1171-1260: 90-aa human peptidome tile displayed on T7 phage (protein, UniProt Q99698 1171-1260, looked up, fragment)
chain: NYSADFEHNDAMTEKSHQSAEELSSQPGDFSEEAEDSQCCSFKLLVEEEGYEADSESNPEDGETQDDGVDLKSETEGFSASSSPNDLLEN
modifications: displayed on T7 phage
For B5, the Caspase1 fold change was 21.04 fold.

B6: ANAPC1 1-90: 90-aa human peptidome tile displayed on T7 phage (protein, UniProt Q9H1A4 1-90, looked up, fragment)
chain: MSNFYEERTTMIAARDLQEFVPFGRDHCKHHPNALNLQLRQLQPASELWSSDGAAGLVGSLQEVTIHEKQKESWQLRKGVSEIGEDVDYD
modifications: displayed on T7 phage
B6 gave a Caspase1 fold change of 16.35 fold.

B7: Hyls1 1-90: 90-aa human peptidome tile displayed on T7 phage (protein, UniProt Q96M11 1-90, looked up, fragment)
chain: MEELLPDGQIWANMDPEERMLAAATAFTHICAGQGEGDVRREAQSIQYDPYSKASVAPGKRPALPVQLQYPHVESNVPSETVSEASQRLR
modifications: displayed on T7 phage
B7 showed a Caspase1 fold change of 19.74 fold.

B8: ZNF469 811-900: 90-aa human peptidome tile displayed on T7 phage (protein, UniProt Q96JG9 811-900, looked up, fragment)
chain: PLRTGFLPSLAATPFPLPASDLDMEDDAKLDSLITEALNGMEYQSDNPEIDSSFIDVFADEEPSGPRGPSSGHPLKSKAGVTPESKAPPP
modifications: displayed on T7 phage
B8 gave a Caspase1 fold change of 16.76 fold.

B9: UHRF1BP1L 991-1080: 90-aa human peptidome tile displayed on T7 phage (protein, UniProt A0JNW5 991-1080, looked up, fragment)
chain: EIGSETSDKKDSFYTDSSSILNYREDSNILSFDSDGNQNILSSTLTSKGNETIESIFKAEDLLPEAASLSENLDISKEETPPVRTLKSQS
modifications: displayed on T7 phage
With B9 the Caspase1 fold change was 16.39 fold.

B10: HMGXB4 226-315: 90-aa human peptidome tile displayed on T7 phage (protein, UniProt Q9UGU5 226-315, looked up, fragment)
chain: KSARDEQGALLLGHELQSFLKTARKKHKSSSDAHSSPGPEGCGSDASQFAESHSANLDLSGLEPILVESDSSSGGELEAGELVIDDSYRE
modifications: displayed on T7 phage
With B10 the Caspase1 fold change was 16.49 fold.

B11: Znf462 1-90: 90-aa human peptidome tile displayed on T7 phage (protein, UniProt Q96JM2 1-90, looked up, fragment)
chain: MEVLQCDGCDFRAPSYEDLKAHIQDVHTAFLQPTDVAEDNVNELRCGSVNASNQTEVEFSSIKDEFAIAEDLSGQNATSLGTGGYYGHSP
modifications: displayed on T7 phage
In the case of B11, the Caspase1 fold change is reported as 19.1 fold.

B12: HUWE1 2341-2430: 90-aa human peptidome tile of HUWE1 displayed on T7 phage (protein, UniProt Q7Z6Z7 2341-2430, looked up, fragment)
chain: EMQVENELEDLIDELLERDGGSGNSTIIVSRSGEDESQEDVLMDEAPSNLSQASTLQANREDSMNILDPEDEEEHTQEEDSSGSNEDEDD
modifications: displayed on T7 phage
Work on B12 yielded a Caspase1 fold change of 16.55 fold.

B13: hoxa2 271-360: 90-aa human peptidome tile displayed on T7 phage (protein, UniProt O43364 271-360, looked up, fragment)
chain: SFPVSPLTSNEKNLKHFQHQSPTVPNCLSTMGQNCGAGLNNDSPEALEVPSLQDFSVFSTDSCLQLSDAVSPSLPGSLDSPVDISADSLD
modifications: displayed on T7 phage
B13 was tested, and the Caspase1 fold change was 17.06 fold.

B14: TNS3 451-540: 90-aa human peptidome tile displayed on T7 phage (protein, UniProt Q68CZ2 451-540, looked up, fragment)
chain: YSGTRHVVPAQVHVNGDAALKDRETDILDDEMPHHDLHSVDSLGTLSSSEGPQSAHLGPFTCHKSSQNSLLSDGFGSNVGEDPQGTLVPD
modifications: displayed on T7 phage
B14 was tested, and the Caspase1 fold change was 18.67 fold.

B15: BSN 631-720: 90-aa human peptidome tile displayed on T7 phage (protein, UniProt Q9UPA5 631-720, looked up, fragment)
chain: ATPKVKSGVRRAEPATPVVKAVPEAPKGGEAEDLVGKPYSQDASRSPQSLSDTGYSSDGISSSQSEITGVVQQEVEQLDSAGVTGPHPPS
modifications: displayed on T7 phage
B15 gave a Caspase1 fold change of 18.78 fold.
